We go through 15 variants from FireProtDB (doi:10.1021/bi0362267).

For orientation: Tm means the temperature at which the thermal transition is half complete.

B1: Ribonuclease, P00648 (parent)
chain: MMKMEGIALKKRLSWISVCLLVLVSAAGMLFSTAAKTETSSHKAHTEAQVINTFDGVADYLQTYHKLPDNYITKSEAQALGWVASKGNLADVAPGKSIGGDIFSNREGKLPGKSGRTWREADINYTSGFRNSDRILYSSDWLIYKTTDHYQTFTKIR

Variants of B1 are the subject of this data set. The settings on record: Bacillus amyloliquefaciens, pH 6.3, Thermal, CD, Mes 50 mM, structure 1BNI, whole UniProt chain shown; for ddG of mutation (higher = less stable) / unfolding free energy: 25 °C.

Consider Q62G, for which the “ddG of mutation (higher = less stable)” value was found to be 1.6 kcal/mol; the unfolding free energy came to 7.9 kcal/mol; the Tm was found to be 50.2 °C; the “change of melting temperature, mutant - wild type (higher = more stable)” value (from here on “change of melting temperature, mutant”) is -2 °C. Further, the “unfolding enthalpy (van 't Hoff)” value worked out at 123 kcal/mol.
For Q62A, in that order: 0.2 kcal/mol, 9.3 kcal/mol, 51.4 °C, -0.9 °C and 137 kcal/mol.
The matching figures for L136G: 7 kcal/mol, 2.5 kcal/mol, 43.5 °C, -8.7 °C and 58.5 kcal/mol.
For T147G, the “ddG of mutation (higher = less stable)” value is 2.8 kcal/mol and the unfolding free energy worked out at 6.7 kcal/mol.
For the variant L142G, the “ddG of mutation (higher = less stable)” value was found to be 4.7 kcal/mol; the unfolding free energy amounted to 4.8 kcal/mol; the Tm came out at 43.1 °C; the “change of melting temperature, mutant” value was -9.1 °C. Also, the “unfolding enthalpy (van 't Hoff)” value was determined as 98.5 kcal/mol.
For R119G, in that order: 2.5 kcal/mol, 7 kcal/mol, 46.5 °C, -5.7 °C and 123 kcal/mol.
The matching figures for Y60G: 6.4 kcal/mol, 3.1 kcal/mol, 36.6 °C, -15.6 °C and 92.7 kcal/mol.
Y64G: the Tm came to 42 °C; the “change of melting temperature, mutant” value was -10.3 °C; the “unfolding enthalpy (van 't Hoff)” value worked out at 117 kcal/mol.
In the case of I135G, the “ddG of mutation (higher = less stable)” value was 7.4 kcal/mol; the unfolding free energy stood at 2.1 kcal/mol; the Tm amounted to 31.4 °C; the “change of melting temperature, mutant” value was -20.8 °C. Further, the “unfolding enthalpy (van 't Hoff)” value amounted to 100 kcal/mol.
In the case of I102G, the “ddG of mutation (higher = less stable)” value came out at 3.1 kcal/mol and the unfolding free energy was 6.4 kcal/mol.
E120G: the Tm came to 39.5 °C; the “change of melting temperature, mutant” value is -12.7 °C; the “unfolding enthalpy (van 't Hoff)” value was 101 kcal/mol.
Consider Y144G, for which the “ddG of mutation (higher = less stable)” value stood at 6.6 kcal/mol; the unfolding free energy worked out at 2.9 kcal/mol; the Tm turned out to be 34.4 °C; the “change of melting temperature, mutant” value was -17.9 °C. In addition, the “unfolding enthalpy (van 't Hoff)” value turned out to be 103 kcal/mol.
Consider I143G, for which the Tm came to 36.5 °C; the “change of melting temperature, mutant” value is -15.7 °C; the “unfolding enthalpy (van 't Hoff)” value was 110 kcal/mol.
In the case of D59A, the “ddG of mutation (higher = less stable)” value was -1.1 kcal/mol; the unfolding free energy amounted to 10.6 kcal/mol; the Tm amounted to 51.2 °C; the “change of melting temperature, mutant” value is -1 °C. Moreover, the “unfolding enthalpy (van 't Hoff)” value came out at 153 kcal/mol.
For D59G, in that order: 1.2 kcal/mol, 8.3 kcal/mol, 50 °C, -2.3 °C and 129 kcal/mol.
